B1: FLAG-tagged DND1 wild-type (Dead End, full-length human protein 1-353) [human] / DHX30 [human (endogenous in HEK293T)] (parent)
chain 1: MQSKRDCELWCERVNPENKAALEAWVRETGIRLVQVNGQRKYGGPPPGWVGSPPPAGSEVFIGRLPQDVYEHQLIPLFQRVGRLYEFRLMMTFSGLNRGFAYARYSSRRGAQAAIATLHNHPLRPSCPLLVCRSTEKCELSVDGLPPNLTRSALLLALQPLGPGLQEARLLPSPGPAPGQIALLKFSSHRAAAMAKKALVEGQSHLCGEQVAVEWLKPDLKQRLRQQLVGPFLRSPQPEGSQLALARDKLGFQGARATLQLLCQRMKLGSPVFLTKCLGIGPAGWHRFWYQVVIPGHPVPFSGLIWVVLTLDGRDGHEVAKDAVSVRLLQALSESGANLLWSAGAEAGTMVKQ
chain 2: MFSLDSFRKDRAQHRQRQCKLPPPRLPPMCVNPTPGGTISRASRDLLKEFPQPKNLLNSVIGRALGISHAKDKLVYVHTNGPKKKKVTLHIKWPKSVEVEGYGSKKIDAERQAAAAACQLFKGWGLLGPRNELFDAAKYRVLADRFGSPADSWWRPEPTMPPTSWRQLNPESIRPGGPGGLSRSLGREEEEDEEEELEEGTIDVTDFLSMTQQDSHAPLRDSRGSSFEMTDDDSAIRALTQFPLPKNLLAKVIQIATSSSTAKNLMQFHTVGTKTKLSTLTLLWPCPMTFVAKGRRKAEAENKAAALACKKLKSLGLVDRNNEPLTHAMYNLASLRELGETQRRPCTIQVPEPILRKIETFLNHYPVESSWIAPELRLQSDDILPLGKDSGPLSDPITGKPYVPLLEAEEVRLSQSLLELWRRRGPVWQEAPQLPVDPHRDTILNAIEQHPVVVISGDTGCGKTTRIPQLLLERYVTEGRGARCNVIITQPRRISAVSVAQRVSHELGPSLRRNVGFQVRLESKPPSRGGALLFCTVGILLRKLQSNPSLEGVSHVIVDEVHERDVNTDFLLILLKGLQRLNPALRLVLMSATGDNERFSRYFGGCPVIKVPGFMYPVKEHYLEDILAKLGKHQYLHRHRHHESEDECALDLDLVTDLVLHIDARGEPGGILCFLPGWQEIKGVQQRLQEALGMHESKYLILPVHSNIPMMDQKAIFQQPPVGVRKIVLATNIAETSITINDIVHVVDSGLHKEERYDLKTKVSCLETVWVSRANVIQRRGRAGRCQSGFAYHLFPRSRLEKMVPFQVPEILRTPLENLVLQAKIHMPEKTAVEFLSKAVDSPNIKAVDEAVILLQEIGVLDQREYLTTLGQRLAHISTDPRLAKAIVLAAIFRCLHPLLVVVSCLTRDPFSSSLQNRAEVDKVKALLSHDSGSDHLAFVRAVAGWEEVLRWQDRSSRENYLEENLLYAPSLRFIHGLIKQFSENIYEAFLVGKPSDCTLASAQCNEYSEEEELVKGVLMAGLYPNLIQVRQGKVTRQGKFKPNSVTYRTKSGNILLHKSTINREATRLRSRWLTYFMAVKSNGSVFVRDSSQVHPLAVLLLTDGDVHIRDDGRRATISLSDSDLLRLEGDSRTVRLLKELRRALGRMVERSLRSELAALPPSVQEEHGQLLALLAELLRGPCGSFDVRKTADD
B2: FLAG-tagged DND1 wild-type (Dead End, full-length human protein 1-353) [human] / MATR3 [human (endogenous in HEK293T)] (parent)
chain 1: B1 chain 1
chain 2: MSKSFQQSSLSRDSQGHGRDLSAAGIGLLAAATQSLSMPASLGRMNQGTARLASLMNLGMSSSLNQQGAHSALSSASTSSHNLQSIFNIGSRGPLPLSSQHRGDADQASNILASFGLSARDLDELSRYPEDKITPENLPQILLQLKRRRTEEGPTLSYGRDGRSATREPPYRVPRDDWEEKRHFRRDSFDDRGPSLNPVLDYDHGSRSQESGYYDRMDYEDDRLRDGERCRDDSFFGETSHNYHKFDSEYERMGRGPGPLQERSLFEKKRGAPPSSNIEDFHGLLPKGYPHLCSICDLPVHSNKEWSQHINGASHSRRCQLLLEIYPEWNPDNDTGHTMGDPFMLQQSTNPAPGILGPPPPSFHLGGPAVGPRGNLGAGNGNLQGPRHMQKGRVETSRVVHIMDFQRGKNLRYQLLQLVEPFGVISNHLILNKINEAFIEMATTEDAQAAVDYYTTTPALVFGKPVRVHLSQKYKRIKKPEGKPDQKFDQKQELGRVIHLSNLPHSGYSDSAVLKLAEPYGKIKNYILMRMKSQAFIEMETREDAMAMVDHCLKKALWFQGRCVKVDLSEKYKKLVLRIPNRGIDLLKKDKSRKRSYSPDGKESPSDKKSKTDGSQKTESSTEGKEQEEKSGEDGEKDTKDDQTEQEPNMLLESEDELLVDEEEAAALLESGSSVGDETDLANLGDVASDGKKEPSDKAVKKDGSASAAAKKKLKKVDKIEELDQENEAALENGIKNEENTEPGAESSENADDPNKDTSENADGQSDENKDDYTIPDEYRIGPYQPNVPVGIDYVIPKTGFYCKLCSLFYTNEEVAKNTHCSSLPHYQKLKKFLNKLAEERRQKKET
B3: FLAG-tagged DND1 wild-type (Dead End, full-length human protein 1-353) [human] / HNRNPL [human (endogenous in HEK293T)] (parent)
chain 1: B1 chain 1
chain 2: MSRRLLPRAEKRRRRLEQRQQPDEQRRRSGAMVKMAAAGGGGGGGRYYGGGSEGGRAPKRLKTDNAGDQHGGGGGGGGGAGAAGGGGGGENYDDPHKTPASPVVHIRGLIDGVVEADLVEALQEFGPISYVVVMPKKRQALVEFEDVLGACNAVNYAADNQIYIAGHPAFVNYSTSQKISRPGDSDDSRSVNSVLLFTILNPIYSITTDVLYTICNPCGPVQRIVIFRKNGVQAMVEFDSVQSAQRAKASLNGADIYSGCCTLKIEYAKPTRLNVFKNDQDTWDYTNPNLSGQGDPGSNPNKRQRQPPLLGDHPAEYGGPHGGYHSHYHDEGYGPPPPHYEGRRMGPPVGGHRRGPSRYGPQYGHPPPPPPPPEYGPHADSPVLMVYGLDQSKMNCDRVFNVFCLYGNVEKVKFMKSKPGAAMVEMADGYAVDRAITHLNNNFMFGQKLNVCVSKQPAIMPGQSYGLEDGSCSYKDFSESRNNRFSTPEQAAKNRIQHPSNVLHFFNAPLEVTEENFFEICDELGVKRPSSVKVFSGKSERSSSGLLEWESKSDALETLGFLNHYQMKNPNGPYPYTLKLCFSTAQHAS
B4: FLAG-tagged DND1 wild-type (Dead End, full-length human protein 1-353) [human] / HNRNPC [human (endogenous in HEK293T)] (parent)
chain 1: B1 chain 1
chain 2: MASNVTNKTDPRSMNSRVFIGNLNTLVVKKSDVEAIFSKYGKIVGCSVHKGFAFVQYVNERNARAAVAGEDGRMIAGQVLDINLAAEPKVNRGKAGVKRSAAEMYGSVTEHPSPSPLLSSSFDLDYDFQRDYYDRMYSYPARVPPPPPIARAVVPSKRQRVSGNTSRRGKSGFNSKSGQRGSSKSGKLKGDDLQAIKKELTQIKQKVDSLLENLEKIEKEQSKQAVEMKNDKSEEEQSSSSVKKDETNVKMESEGGADDSAEEGDLLDDDDNEDRGDDQLELIKDDEKEAEEGEDDRDSANGEDDS

Variants of: B1
Test: FLAG immunoprecipitation and LC/ESI-MS/MS
Details: with DHX30 [human (endogenous in HEK293T)]; HEK293T cells, three biological replicates; read off a plot

**Q.** With chain 1 MQSKRDCELWCERVNPENKAALEAWVRETGIRLVQVNGQRKYGGPPPGWVGSPPPAGSEVFIGRLPQDVYEHQLIPLFQRVGRLYEFRLMMTFSGLNAGFAYARYSSRRGAQAAIATLHNHPLRPSCPLLVCRSTEKCELSVDGLPPNLTRSALLLALQPLGPGLQEARLLPSPGPAPGQIALLKFSSHRAAAMAKKALVEGQSHLCGEQVAVEWLKPDLKQRLRQQLVGPFLRSPQPEGSQLALARDKLGFQGARATLQLLCQRMKLGSPVFLTKCLGIGPAGWHRFWYQVVIPGHPVPFSGLIWVVLTLDGRDGHEVAKDAVSVRLLQALSESGANLLWSAGAEAGTMVKQ [chain 1 R98A] as the variant, how does the screen value read?
**A.** The screen value was -2.3.

Variants of: B2
Test: FLAG immunoprecipitation and LC/ESI-MS/MS
Details: with MATR3 [human (endogenous in HEK293T)]; HEK293T cells, three biological replicates; read off a plot

**Q.** chain 1 MQSKRDCELWCERVNPENKAALEAWVRETGIRLVQVNGQRKYGGPPPGWVGSPPPAGSEVFIGRLPQDVYEHQLIPLFQRVGRLYEFRLMMTFSGLNAGFAYARYSSRRGAQAAIATLHNHPLRPSCPLLVCRSTEKCELSVDGLPPNLTRSALLLALQPLGPGLQEARLLPSPGPAPGQIALLKFSSHRAAAMAKKALVEGQSHLCGEQVAVEWLKPDLKQRLRQQLVGPFLRSPQPEGSQLALARDKLGFQGARATLQLLCQRMKLGSPVFLTKCLGIGPAGWHRFWYQVVIPGHPVPFSGLIWVVLTLDGRDGHEVAKDAVSVRLLQALSESGANLLWSAGAEAGTMVKQ [chain 1 R98A] was tested. Which screen value did it give?
**A.** The screen value was -0.52.

Variants of: B3
Test: FLAG immunoprecipitation and LC/ESI-MS/MS
Details: with HNRNPL [human (endogenous in HEK293T)]; HEK293T cells, three biological replicates; read off a plot

**Q.** With chain 1 MQSKRDCELWCERVNPENKAALEAWVRETGIRLVQVNGQRKYGGPPPGWVGSPPPAGSEVFIGRLPQDVYEHQLIPLFQRVGRLYEFRLMMTFSGLNAGFAYARYSSRRGAQAAIATLHNHPLRPSCPLLVCRSTEKCELSVDGLPPNLTRSALLLALQPLGPGLQEARLLPSPGPAPGQIALLKFSSHRAAAMAKKALVEGQSHLCGEQVAVEWLKPDLKQRLRQQLVGPFLRSPQPEGSQLALARDKLGFQGARATLQLLCQRMKLGSPVFLTKCLGIGPAGWHRFWYQVVIPGHPVPFSGLIWVVLTLDGRDGHEVAKDAVSVRLLQALSESGANLLWSAGAEAGTMVKQ [chain 1 R98A] as the variant, how does the screen value read?
**A.** The screen value was -1.7.

Variants of: B4
Test: FLAG immunoprecipitation and LC/ESI-MS/MS
Details: with HNRNPC [human (endogenous in HEK293T)]; HEK293T cells, three biological replicates; read off a plot

**Q.** chain 1 R98A was tested. Which screen value did it give?
**A.** The screen value was -0.8.

Reference: PMC9537309
